No end group written: not given here. (C16)2‑Glu‑C2 = not defined here
Assays:
[1] = target: T1, integrin α5β1 on patient-derived glioblastoma stem-like cells (GBM-CCC-001, GBM-CCC-002, GBM-CCC-003) (human (patient-derived cells), UniProt P08648 42-1049; P05556 21-798); assay: flow cytometry of calcein-loaded liposomes (150 µM lipid) on GBM-CCC-001, GBM-CCC-002 and GBM-CCC-003 cells, 48 hours at 37° C.
T1 construct: whole, on cells; Endogenous heterodimer on cells; The cells were not engineered, so other surface proteins were also present; also called α5β1 integrin; integrin α5β1 polypeptide
Method: (§1) GSC neurospheres (GBM-CCC-001, GBM-CCC-002 and GBM-CCC-003) were collected into 15 mL Falcon tubes, pelleted down, and dissociated into single cells. About 200,000 cells were transferred into Eppendorf tubes in neurosphere culture media and treated with 2 mM calcein loaded PR_b liposomes or non-targeted liposomes at a lipid concentration of 150 μM for 48 hours at 37° C. on a shaker. After the incubation period, cells were pelleted down and washed twice with PBS. Flow cytometric analysis was carried out immediately using BD FACSCanto. Non-treated cells that received only media served as a control. Cell autofluorescence was subtracted from all measurements. For the blocking experiment, the same procedure was followed, except cells were preincubated with 1 mg/mL free PR_b peptide in media for 1 hour at 37° C. prior to addition of the PR_b liposomes and incubation for an additional 1 hour at 37° C.

[2] = target: T1, integrin α5β1 on patient-derived …; assay: flow cytometry blocking experiment on GBM-CCC-001 cells; 1 mg/mL free PR_b peptide for 1 hour, then PR_b liposomes for 1 hour at 37° C.
Method: as §1

T1 sequence (P08648 42-1049, chain 1 of 2): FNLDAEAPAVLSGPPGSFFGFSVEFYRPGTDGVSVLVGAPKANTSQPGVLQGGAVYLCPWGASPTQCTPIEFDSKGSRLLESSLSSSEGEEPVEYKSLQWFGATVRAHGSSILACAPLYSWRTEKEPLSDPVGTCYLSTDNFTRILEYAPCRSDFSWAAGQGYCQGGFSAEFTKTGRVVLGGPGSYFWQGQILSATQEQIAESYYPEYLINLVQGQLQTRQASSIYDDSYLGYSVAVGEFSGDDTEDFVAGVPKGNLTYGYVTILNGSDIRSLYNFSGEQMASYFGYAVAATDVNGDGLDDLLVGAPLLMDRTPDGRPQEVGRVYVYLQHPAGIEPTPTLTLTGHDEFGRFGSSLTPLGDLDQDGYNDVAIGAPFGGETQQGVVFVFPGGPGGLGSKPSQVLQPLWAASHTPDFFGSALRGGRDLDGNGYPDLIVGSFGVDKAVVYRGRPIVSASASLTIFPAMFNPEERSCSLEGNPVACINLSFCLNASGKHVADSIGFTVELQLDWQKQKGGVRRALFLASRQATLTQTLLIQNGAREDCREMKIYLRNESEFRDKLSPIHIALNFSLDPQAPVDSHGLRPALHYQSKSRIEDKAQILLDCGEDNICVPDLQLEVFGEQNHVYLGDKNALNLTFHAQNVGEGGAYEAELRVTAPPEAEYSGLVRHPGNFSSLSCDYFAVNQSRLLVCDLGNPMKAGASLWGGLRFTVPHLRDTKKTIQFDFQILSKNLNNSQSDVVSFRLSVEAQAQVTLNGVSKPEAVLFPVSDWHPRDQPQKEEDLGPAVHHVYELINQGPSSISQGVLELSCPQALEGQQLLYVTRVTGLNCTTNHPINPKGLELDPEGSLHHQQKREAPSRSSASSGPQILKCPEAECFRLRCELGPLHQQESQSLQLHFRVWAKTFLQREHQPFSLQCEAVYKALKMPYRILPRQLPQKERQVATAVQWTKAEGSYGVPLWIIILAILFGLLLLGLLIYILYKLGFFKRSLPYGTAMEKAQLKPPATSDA
T1 sequence (P05556 21-798, chain 2 of 2): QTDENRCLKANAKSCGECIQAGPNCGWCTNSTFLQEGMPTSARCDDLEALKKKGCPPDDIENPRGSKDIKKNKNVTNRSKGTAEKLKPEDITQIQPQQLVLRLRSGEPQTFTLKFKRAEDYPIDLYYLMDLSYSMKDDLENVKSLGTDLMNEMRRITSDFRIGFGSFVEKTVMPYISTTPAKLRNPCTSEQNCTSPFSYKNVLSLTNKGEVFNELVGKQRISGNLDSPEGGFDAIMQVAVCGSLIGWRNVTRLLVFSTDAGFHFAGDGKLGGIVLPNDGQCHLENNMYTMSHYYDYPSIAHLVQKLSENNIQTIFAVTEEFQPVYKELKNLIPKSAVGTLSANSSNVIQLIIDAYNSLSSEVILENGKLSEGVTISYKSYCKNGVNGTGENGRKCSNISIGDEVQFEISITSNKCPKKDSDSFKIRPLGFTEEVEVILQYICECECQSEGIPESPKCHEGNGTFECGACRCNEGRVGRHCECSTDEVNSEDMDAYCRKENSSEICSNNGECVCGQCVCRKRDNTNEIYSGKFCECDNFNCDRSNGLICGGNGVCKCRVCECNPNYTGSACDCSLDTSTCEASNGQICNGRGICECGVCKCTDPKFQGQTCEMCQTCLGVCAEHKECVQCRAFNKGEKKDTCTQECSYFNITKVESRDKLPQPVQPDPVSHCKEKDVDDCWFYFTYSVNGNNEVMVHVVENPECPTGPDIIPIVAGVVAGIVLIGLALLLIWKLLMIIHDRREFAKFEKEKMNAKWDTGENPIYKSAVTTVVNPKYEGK

| Binder | binding result [1] | binding result [2] |
| --- | --- | --- |
| {(C16)2‑Glu‑C2}-KSSPHSRNSGSGSGSGSGRGDSP (reading uncertain; also: printed as (C16)2-Glu-C2-KSSPHSRNSGSGSGSGSGRGDSP, Synthetic fibronectin-mimetic peptide) | binds | – |
| KSSPHSRNSGSGSGSGSGRGDSP [free PR_b peptide] | – | binds |

From patent US20240209361A1 (Johns Hopkins, published 2024)
